Experiment [1] concerns the target T1, recombinant biotinylated human PAR2 extracellular domain (residues 1-75), N-terminal AviTag, C-terminal Flag … (human, UniProt P55085 26-75, biotin on the AviTag (enzymatic biotinylation)).
T1 construct: also called Bio-human-PAR2 ECD; human PAR2 ECD; not shown: N-terminal AviTag (Avidity LLC); C-terminal Flag and poly Histidine tags
Nature of the experiment: HTRF competition with Dylight650-Par0067 IgG, pH 7.4, IgG. As for the experimental part: (§1) Parent Par0067 IgG (used as a reference/control in all assays) was pre-diluted to give a 2000 nM stock in each of the two different pH assay buffers (in order to give a top final assay IgG concentration of 500 nM). All test, or other reference/control IgG were tested from a top final assay concentration of ¼ of the neat undiluted sample (i.e. no pre-dilution step was performed). Duplicate 11 point 1:3 serial dilutions then were prepared on 384 well polypropylene Greiner plates in each of the two assay buffers (pH 7.4 & 6.0). 5 μl per well was transferred from the relevant pH IgG dilution plate to the corresponding assay plate (pH 7.4 and pH 6.0). 5 ul of the appropriate pH assay buffer was added to the total and non-specific wells.
(§2) For multipoint dose response curves % Specific Binding values were plotted versus test purified antibody concentration (scFv or IgG). IC₅₀ values were determined via a sigmoidal dose response inhibition variable slope curve fit (4 parameter logistic equation) using Graphpad Prism Software.
For orientation: Time-resolved FRET reads energy transfer from a long-lived donor to a nearby acceptor.

Experiment [2] addresses T1, recombinant biotinylated human PAR2 …. Nature of the experiment: HTRF competition with Dylight650-Par0067 IgG, IgG. On the procedure:
as §1, §2

The target is the same in experiment [3]. The experiment is described as follows: HTRF competition with Dylight650-Par0067 IgG, pH 6.0, IgG. On the procedure: as §1, §2
The target is the same in experiment [4]. The experiment is described as follows: Biacore SPR 25 C, pH 7.4. As for the experimental part: (§3) The experiments were carried out using recombinant human, rat and cynomolgus PAR2 with an N-terminal Avi tag and C-terminal Flag-His tags.
(§4) Streptavidin was covalently immobilised to a C1 chip surface using standard amine coupling techniques at a concentration of 4 μg/ml in 10 mM Sodium acetate pH 4.5. A final streptavidin surface of approximately 30-100 RUs was achieved. Recombinant biotinylated PAR2 species (produced in-house) were titrated onto the streptavidin chip surface at 4 μg/ml in HBS-EP+ buffer to enable Fab binding at saturation (Rₘₐₓ). This low level of analyte binding ensured minimal mass transport effects.
(§5) The anti-PAR2 Fabs were serially diluted (0.39 nM-25 nM) in HBS-EP+ buffer pH 7.4 or MES-BS-EP+ pH 6.0 buffer or in MES-BS-EP+ pH 5.6 buffer and flowed over the chip at 50 μl/min, with 3 minutes association and up to 30 minutes dissociation. Multiple buffer-only injections were made under the same conditions to allow for double reference subtraction of the final sensorgram sets, which were analysed using the BiaEval software (version 2.0.1). The chip surface was fully regenerated with pulses of 4 M MgCl₂.
(SPR reads the build-up and loss of mass on a sensor chip optically.)

The target in experiment [5] is T2, recombinant biotinylated rat PAR2 extracellular residues 1-75, N-terminal AviTag, C-terminal Flag and poly … (rat, UniProt Q63645 26-75, not fully specified; biotin on the AviTag (enzymatic biotinylation)).
T2 construct: range 1-75; not shown: N-terminal AviTag (Avidity LLC); C-terminal Flag and poly Histidine tags
T2 chain (looked up): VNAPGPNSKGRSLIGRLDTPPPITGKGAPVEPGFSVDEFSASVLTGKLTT
Nature of the experiment: Biacore SPR 25 C, pH 7.4. On the procedure: as §3, §4, §5

Experiment [6] addresses T1, recombinant biotinylated human PAR2 …. Nature of the experiment: Biacore SPR 25 C, pH 6.0. On the procedure: as §3, §4, §5
Experiment [7] concerns the target T2, recombinant biotinylated rat PAR2 …. The experiment is described as follows: Biacore SPR 25 C, pH 6.0. On the procedure: as §3, §4, §5

The results in this text go back to patent publication US20180305450A1 (AstraZeneca / MedImmune, published 2018).

T1 sequence (P55085 26-75): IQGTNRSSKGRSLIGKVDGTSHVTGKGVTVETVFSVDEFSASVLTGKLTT

B1: Par0067 IgG (antibody, V domains shown)
VH: EVQLLESGGGLVQPGGSLRLSCAASGFTFSSYAMNWVRQAPGKGLEWVSTISYSGSLISYADSVKGRFTISRDNSKNTLYLQMNSLRAEDTAVYYCARINNDPMDVWGQGTLVTVSS
VL: SIELTQPPSVSVSPGQTASITCSGDNLGKKYVQWYQQKPGQSPVLVIYDDSNRPSGIPERFSGSNSGNTATLTISGTQAMDEADYYCQTWDGNPTTGETNVFGGGTKLTVL
notes: IgG1-TM (L234F, L235E, P331S), human lambda light chain; also called ZZ15D2-D02; parent Par0067 IgG
Regarding B1, the figures for the IC50 in experiment [1] and in experiment [3] were 0.835 nM and 0.79 nM, respectively. The “Fold IC50 (pH 6.0 v pH 7.4)” value in experiment [2] stood at 0.95 fold. Besides, in experiment [2], the “Fold IC50 pH 7.4 (Variant v Par0067)” value was 1 fold.

B2: PaB670149 IgG (antibody, V domains shown)
VH: EVQLLESGGGLVQPGGSLRLSCAASGFTFSSYAMNWVRQAPGKGLEWVSTISYHGHHISYADSHHHRFTISRDNSKNTLYLQMNSLRAEDTAVYYCARINHDPMDVWGQGTLVTVSS
VL: SIELTQPPSVSVSPGQTASITCSGDNLGKKYVQWYQQKPGQSPVLVIYDDSNRPSGIPERFSGSNSGNTATLTISGTQAMDEADYYCHTWHHHPTHGEHNVFGGGTKLTVL
notes: IgG1-TM (L234F, L235E, P331S), human lambda light chain
For B2, the half-maximal inhibitory concentration (IC50) in experiment [1] was found to be 505 nM. Besides, the “Fold IC50 pH 7.4 (Variant v Par0067)” value in experiment [2] worked out at 605 fold.

B3: PaB670076 Fab (Fab, V domains shown)
VH: EVQLLESGGGLVQPGGSLRLSCAASGFTFSSYAMNWVRQAPGKGLEWVSTISYSGSLISYADSVKGRFTISRDNSKNTLYLQMNSLRAEDTAVYYCARINNDPMDVWGQGTLVTVSS
VL: SIELTQPPSVSVSPGQTASITCSGDNLGKKYVQWYQQKPGQSPVLVIYDDSNRPSGIPERFSGSNSGNTATLTISGTQAMDEADYYCHTWDHHHTTGEHNVFGGGTKLTVL
notes: Fab; also called ZZ1NHH-F09
Consider B3, for which the Kd in experiment [4] worked out at 0.207 nM; in experiment [5], 1.69 nM; in experiment [6] it was 4.61 nM; in experiment [7], 30.7 nM. In addition, the koff amounted to 0.00121 s⁻¹ in experiment [4], 0.0107 s⁻¹ in experiment [5], 0.00514 s⁻¹ in experiment [6] and 0.051 s⁻¹ in experiment [7]. Besides, the kon in experiment [4] was 5.84e+06 M⁻¹ s⁻¹; in experiment [5], 6.34e+06 M⁻¹ s⁻¹; in experiment [6], 1.11e+06 M⁻¹ s⁻¹; in experiment [7], 1.66e+06 M⁻¹ s⁻¹.

B4: PaB670084 IgG (antibody, V domains shown)
VH: EVQLLESGGGLVQPGGSLRLSCAASGFTFSSYAMNWVRQAPGKGLEWVSTISHSGHLIHHADSHKGRFTISRDNSKNTLYLQMNSLRAEDTAVYYCARINNDPMDVWGQGTLVTVSS
VL: SIELTQPPSVSVSPGQTASITCSGDNLGKKYVQWYQQKPGQSPVLVIYDDSNRPSGIPERFSGSNSGNTATLTISGTQAMDEADYYCQTWDGNPTTGETNVFGGGTKLTVL
notes: IgG1-TM (L234F, L235E, P331S), human lambda light chain; also called ZZ1PXA-A05
B4: the IC50 in experiment [1] worked out at 10.3 nM; in experiment [3], 64.6 nM. Moreover, the “Fold IC50 (pH 6.0 v pH 7.4)” value in experiment [2] came to 6.3 fold. Further, the “Fold IC50 pH 7.4 (Variant v Par0067)” value in experiment [2] is 12.3 fold.

B5: PaB670128 IgG (antibody, V domains shown)
VH: EVQLLESGGGLVQPGGSLRLSCAASGFTFSSYAMNWVRQAPGKGLEWVSTISYHGHHISYADSHHHRFTISRDNSKNTLYLQMNSLRAEDTAVYYCARIHHDPMDVWGQGTLVTVSS
VL: SIELTQPPSVSVSPGQTASITCSGDNLGKKYVQWYQQKPGQSPVLVIYDDSNRPSGIPERFSGSNSGNTATLTISGTQAMDEADYYCQTWDGNPTTGETNVFGGGTKLTVL
notes: IgG1-TM (L234F, L235E, P331S), human lambda light chain; also called ZZ1RUE-A01
Take B5: the IC50 in experiment [1] was 32.8 nM. In experiment [2], the “Fold IC50 pH 7.4 (Variant v Par0067)” value was found to be 39.3 fold.

B6: PaB670141 IgG (antibody, V domains shown)
VH: EVQLLESGGGLVQPGGSLRLSCAASGFTFSSYAMNWVRQAPGKGLEWVSTISYSGSLISYADSVKGRFTISRDNSKNTLYLQMNSLRAEDTAVYYCARINHDPMDVWGQGTLVTVSS
VL: SIELTQPPSVSVSPGQTASITCSGDNLGKKYVQWYQQKPGQSPVLVIYDDSNRPSGIPERFSGSNSGNTATLTISGTQAMDEADYYCQTWDGNPTHGETNVFGGGTKLTVL
notes: as for B2
Regarding B6, in experiment [1], the IC50 turned out to be 2.4 nM. Besides, in experiment [2], the “Fold IC50 (pH 6.0 v pH 7.4)” value was found to be 5.9 fold and the “Fold IC50 pH 7.4 (Variant v Par0067)” value came out at 2.8 fold. Moreover, the IC50 in experiment [3] amounted to 13.9 nM.

B7: PaB670048 IgG (antibody, V domains shown)
VH: EVQLLESGGGLVQPGGSLRLSCAASGFTFSSYAMNWVRQAPGKGLEWVSTISYSGSLISYADSVKGRFTISRDNSKNTLYLQMNSLRAEDTAVYYCARIHHDPMDHWGQGTLVTVSS
VL: SIELTQPPSVSVSPGQTASITCSGDNLGKKYVQWYQQKPGQSPVLVIYDDSNRPSGIPERFSGSNSGNTATLTISGTQAMDEADYYCQTWDGNPTTGETNVFGGGTKLTVL
notes: IgG1-TM (L234F, L235E, P331S), human lambda light chain; also called ZZ1KX4-E11
As for B7, the 50% inhibitory concentration (IC50) in experiment [1] is 5.7 nM. In addition, in experiment [2], the “Fold IC50 (pH 6.0 v pH 7.4)” value was 8.5 fold and the “Fold IC50 pH 7.4 (Variant v Par0067)” value worked out at 6.8 fold. Further, in experiment [3], the IC50 was 48.2 nM.

B8: PaB670159 IgG (antibody, V domains shown)
VH: EVQLLESGGGLVQPGGSLRLSCAASGFTFSSYAMNWVRQAPGKGLEWVSTISYHGHHISYADSHHHRFTISRDNSKNTLYLQMNSLRAEDTAVYYCARINHDPMDVWGQGTLVTVSS
VL: SIELTQPPSVSVSPGQTASITCSGDNLGKKYVQWYQQKPGQSPVLVIYDDSNRPSGIPERFSGSNSGNTATLTISGTQAMDEADYYCQTWDGHHHTGETNHFGGGTKLTVL
notes: as for B2
Consider B8, for which, in experiment [1], the IC50 was determined as 161 nM. In addition, in experiment [2], the “Fold IC50 pH 7.4 (Variant v Par0067)” value turned out to be 193 fold.

B9: PaB670084 Fab (Fab, V domains shown)
VH: EVQLLESGGGLVQPGGSLRLSCAASGFTFSSYAMNWVRQAPGKGLEWVSTISHSGHLIHHADSHKGRFTISRDNSKNTLYLQMNSLRAEDTAVYYCARINNDPMDVWGQGTLVTVSS
VL: SIELTQPPSVSVSPGQTASITCSGDNLGKKYVQWYQQKPGQSPVLVIYDDSNRPSGIPERFSGSNSGNTATLTISGTQAMDEADYYCQTWDGNPTTGETNVFGGGTKLTVL
notes: Fab; also called ZZ1PXA-A05
Consider B9, for which the Kd in experiment [4] is 0.25 nM; in experiment [5], 1.23 nM; in experiment [6] it was 4.41 nM; in experiment [7] it was 10.8 nM. Besides, the koff in experiment [4] came out at 0.00162 s⁻¹; in experiment [5], 0.00837 s⁻¹; in experiment [6], 0.00763 s⁻¹; in experiment [7], 0.0277 s⁻¹. Besides, the kon in experiment [4] is 6.49e+06 M⁻¹ s⁻¹; in experiment [5], 6.83e+06 M⁻¹ s⁻¹; in experiment [6] it was 1.73e+06 M⁻¹ s⁻¹; in experiment [7] it was 2.57e+06 M⁻¹ s⁻¹.

B10: PaB670163 IgG (antibody, V domains shown)
VH: EVQLLESGGGLVQPGGSLRLSCAASGFTFSSYAMNWVRQAPGKGLEWVSTISYHGHHISYADSHHHRFTISRDNSKNTLYLQMNSLRAEDTAVYYCARINHDPMDVWGQGTLVTVSS
VL: SIELTQPPSVSVSPGQTASITCSGDNLGKKYVQWYQQKPGQSPVLVIYDDSNRPSGIPERFSGSNSGNTATLTISGTQAMDEADYYCHTWDGHHTTGETNHFGGGTKLTVL
notes: as for B2
Regarding B10, the IC50 in experiment [1] was 145 nM. Further, the “Fold IC50 pH 7.4 (Variant v Par0067)” value in experiment [2] was 174 fold.

B11: PaB670045 IgG (antibody, V domains shown)
VH: EVQLLESGGGLVQPGGSLRLSCAASGFTFSSYAMNWVRQAPGKGLEWVSTISYSGSLISYADSVKGRFTISRDNSKNTLYLQMNSLRAEDTAVYYCARIHHDPMDVWGQGTLVTVSS
VL: SIELTQPPSVSVSPGQTASITCSGDNLGKKYVQWYQQKPGQSPVLVIYDDSNRPSGIPERFSGSNSGNTATLTISGTQAMDEADYYCQTWDGNPTTGETNVFGGGTKLTVL
notes: IgG1-TM (L234F, L235E, P331S), human lambda light chain; also called ZZ1KX3-F01
As to B11, the IC50 in experiment [1] came out at 2.9 nM. For the same molecule, in experiment [2], the “Fold IC50 (pH 6.0 v pH 7.4)” value is 8.9 fold and the “Fold IC50 pH 7.4 (Variant v Par0067)” value amounted to 3.5 fold. Besides, the IC50 in experiment [3] was found to be 25.8 nM.

By IC50 is commonly meant the midpoint of a concentration-inhibition curve. The term Kd denotes the equilibrium constant for the complex coming apart. By koff is commonly meant the rate constant with which the complex falls apart. As a reminder, the kon is the second-order rate constant of association.
